According to article PMC7611929 (Nature structural & molecular biology, 2021):

Tests used:
[1] = biological target: the molecule itself; assay: AUC
[2] = biological target: the molecule itself; assay: SEC-MALS

Protein | binding result [1] | stoichiometry N [2]
TRIM21 RING-Box-Coiled-Coil (T21RBCC; residues 1-235) (domain or fragment, UniProt P19474 1-235, looked up) MASAARLTMMWEEVTCPICLDPFVEPVSIECGHSFCQECISQVGKGGGSVCPVCRQRFLLKNLRPNRQLANMVNNLKEISQEAREGTQGERCAVHGERLHLFCEKDGKALCWVCAQSRKHRDHAMVPLEEAAQEYQEKLQVALGELRRKQELAEKLEVEIAIKRADWKKTVETQKSRIHAEFVQQKNFLVEEEQRQLQELEKDEREQLRILGEKEAKLAQQSQALQELISELDRR | binds | –
TRIM21 coiled-coil (T21CC235; residues 129-235) (domain or fragment, UniProt P19474 129-235, looked up) EEAAQEYQEKLQVALGELRRKQELAEKLEVEIAIKRADWKKTVETQKSRIHAEFVQQKNFLVEEEQRQLQELEKDEREQLRILGEKEAKLAQQSQALQELISELDRR | – | 2
